From paper PMC5864733 (Nature Communications, 2018)

Molecular target: T1, CesT (residues 1-156), 6xHis-tagged, wild type (enteropathogenic E. coli (EPEC) O127:H6 …, UniProt P21244 1-156)
T1 construct: source: E. coli BL21(DE3), purified (Ni-NTA, gel filtration); not shown: His6, N-terminal, kept
Test: SPR
Details: both partners purified

T1 sequence (P21244 whole entry, the tested form may be a part): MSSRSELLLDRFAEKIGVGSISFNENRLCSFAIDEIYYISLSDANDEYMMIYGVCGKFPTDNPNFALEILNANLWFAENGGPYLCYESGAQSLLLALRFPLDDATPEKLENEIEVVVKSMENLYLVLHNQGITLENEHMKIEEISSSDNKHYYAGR

B1: CsrA (residues 1-61), GST tag removed (natural protein)
chain: not shown
notes: also called WT CsrA; native CsrA
KD of the first ligand binding site in CsrA (Bivalent-Analyte model): ~148 nM
